Target: T1, human CD47 expressed on the cell surface (human, UniProt Q08722 19-323)
T1 construct: whole, on cells; also called CD47 on SW780, human red blood cells, HT1080, HCT116, Raji, L450cy and patient blood cells
Test: saturation binding, flow cytometry, HCT116 cells; HCT116 cells

B1: Ab47 bearing the A2B1 coiled coil masking domain (antibody)
VH: GASTSVDELQAEVDQLQDENYALKTKVAQLRKKVEKLSEGGGGGPLGVRGGGGSEVQLVESGGGLVQPGGSLRLSCAASGFTFSGYGMSWVRQAPGKGLEWVATITSGGTYTYYPDSVKGRFTISRDNAKNSLYLQMNSLRAEDTAVYYCARSLAGNAMDYWGQGTLVTVSS
VL: GASTTVAQLRERVKTLRAQNYELESEVQRLREQVAQLASGGGGGPLGVRGGGGSEIVLTQSPATLSLSPGERATLSCRASQTISDYLHWYQQKPGQAPRLLIKFASQSISGIPARFSGSGSGTDFTLTISSLEPEDFAVYYCQNGHGFPRTFGQGTKVEIKR
notes: IgG1
How did the Kd turn out when B1 was run?
Its Kd is 1780 nM.

— US20190185561A1 (Seagen, published 2019)
